From patent US20200224186A1 (University of Washington, published 2020) come the findings set out here.

Positions count from the first letter of the chain named. Numbers in names are those of the source.

Series [1] deals with the molecule itself. As to the kind of experiment: size exclusion chromatography and negative stain EM, self-assembly.
Series [2] deals with the molecule itself. As to the kind of experiment: electron cryo-tomography of released vesicles, self-assembly.

B1: Myr-I3-01-myc-p6 (designed binder)
chain: MGARASGSKSGSGSDSGSKMEELFKKHKIVAVLRANSVEEAKKKALAVFLGGVHLIEITFTVPDADTVIKELSFLKEMGAIIGAGTVTSVEQCRKAVESGAEFIVSPHLDEEISQFCKEKGVFYMPGVMTPTELVKAMKLGHTILKLFPGEVVGPQFVKAMKGPFPNVKFVPTGGVNLDNVCEWFKAGVLAVGVGSALVKGTPVEVAEKAKAFVEKIRGCTEQKLISEEDLQSRPEPTAPPEESFRSGVETTTPPQKQEPIDKELYPLTSLRSLFGNDPSSQ
modifications: N-terminal myristoylation motif (6 N-terminal amino acids of HIV Gag); not myristoylated when produced in E. coli
notes: Forms icosahedral assemblies like I3-01; also called Myr-I3-01-p6
Turning to B1, in series [1], the binding result was “binds”.

B2: EPN-01 (designed binder)
chain: B1 chain with M20I
modifications: N-terminal myristoylation motif (6 N-terminal amino acids of HIV Gag)
notes: Every subunit bears the M domain; also called Myr1-12GS-I3-01(M3I)-myc-Late1
Consider B2, for which the binding result in series [2] is “binds”.
